From paper doi:10.1101/2023.07.03.547485 (bioRxiv, 2023)

Target: T1, 6His-msfGFP-TEV-Mis18FL (S. pombe, UniProt Q9P802 1-194)
T1 sequence (looked up): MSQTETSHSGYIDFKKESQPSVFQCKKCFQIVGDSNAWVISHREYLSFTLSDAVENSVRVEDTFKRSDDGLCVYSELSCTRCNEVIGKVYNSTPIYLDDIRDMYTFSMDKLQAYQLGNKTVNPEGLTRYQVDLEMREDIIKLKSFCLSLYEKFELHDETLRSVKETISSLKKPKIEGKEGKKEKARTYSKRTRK
Test: pull-down

binding result: binds
B1: 6His-MBP-Sad1(2-167) (domain or fragment, S. pombe, UniProt Q09825 2-167, looked up)
chain: FTNTPVGGKRERQNGAHPAWSTLGANSAQIHQNTADLASKMHKLRYTKIRSPPTRVSIESITPKQRFPAPNFEQAYHSNIRYEQEESDNEEFENVVKNGHEASTNVFYESDGDDEEFVNEEYENSIDEESDDEGYSLNEDTTATNASFRYPMNQRSTRKSQFYSSK
